The series can be described thus: Solubility of P-1 in water and THF. It counts as physicochemical. The conditions noted are these: method not described.

The structures appear in SMILES notation.

As usually defined, the solubility is the dissolved amount per volume that the medium holds. Higher therefore signals much dissolved substance. Take `O=C(O)[C@H](Cc1ccccc1)NC(=O)[C@H](Cc1ccccc1)N1C(=O)c2ccc3c4ccc5c6c(ccc(c7ccc(c2c37)C1=O)c64)C(=O)N([C@@H](Cc1ccccc1)C(=O)N[C@@H](Cc1ccccc1)C(=O)O)C5=O` [P-1]: the “solubility in THF” value (THF (good solvent)) is on record as ~ 0.1 mM. Under “water (poor solvent)”, the solubility is less than 0.1 µM.

(Values after publication PMC5573372, “Solvent Assisted Tuning of Morphology of a Peptide-Perylenediimide Conjugate: Helical Fibers to Nano-Rings and their Differential Semiconductivity” (Scientific Reports, 2017).)
